Test: soluble fraction after stress (log2 fold change); higher = more stays soluble; pooled small domains, quantitative proteomics
Conditions: stress: pH 4
In short: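 Custom libraries of small protein domains were pooled and exposed to pH 4. High-throughput quantitative proteomics then measured the log2 fold change in the amount of each domain still soluble, with higher values meaning more stayed soluble. This soluble-fraction fold change stands for aggregation propensity.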

Row | Sequence | soluble fraction (log2)
1 | HMDIFLPDVKGYDLIPSFRRHLPDIDVIAMTGYNTRALESAVRQQDVLFYMIKPFEASQLKEILEHLVK | -0.279
2 | HMDIKEIIKNRRIELGLTLKEVATAVGVSEGTVSRWESGNITNMKRNKIAALAKTLQIPPTTI | 0.0875
3 | HMDIKKHISATLKREMEKRGLNFMEFSTELGIPRTTLQGYLKGTSSPQADSLEELADKLGISPAELVSG | -0.434
4 | HMDIMLLLYKNIKKRRLEIGMSQEELAQKTGYTSRSSIAKIEKGEVDLQLSKIKLFANALRVSQSELMG | -0.31
5 | HMDIMTVGERVKKLAEKQGISLRELAKKAELSYNTVYSITRRGSERVAPDTISRLANALGVNVNELT | ≥ 0.43
6 | HMDINEIILKVASEKKTFKTSDVLEALDNNYTKQHVSALISAMVKKGILVKAGSTAKSTYALPENASLL | 0.0858
7 | HMDINIETLNYYVGKAKIPLSELRISVKNIDLFLSGEKQPTFNQLSSIAKKLNIPTGLLLLDESIEV | -1.34
8 | HMDIPGITAVKPQAAFYMFPKIDVKKFNIVNDEKFALDLLQDKKILIVQGSGFNWKQPDHFRVV | 0.115
9 | HMDIRVAHVDDDMSFGEAFAQARSQVGPGGVFEWHGKLYGTYTAEEWASMSPAERSQYQQAVFN | 0.105
10 | HMDIVLPFSFAKRHGVVLSERQGETELLYLKGLPVRVLAEARRVLRQEFTVRQVEQAVFDKALSESYQN | -0.591
11 | HMDIYLDDINRKILHLLSQGVKTKSLRDYIDLSMSAIEKRKKHLKDLFLIEDGKDETLLSEARKKGF | -0.398
12 | HMDKAGWLPARVRLADYPALKQLAWQVQGVDELTPREALGIYERNWRHLDEAALLPRERNLIDALRLAFG | -0.16
13 | HMDKEQVTFIFRDIDIALRSLDYPIKDIKNTLNIIKSEFSNSKSTELNEQKINFENILKEAISILENND | -0.969
14 | HMDKFKDVGARIREARKVQKLSQADLAERLQISTSHMSDIENGKKNIGLDIFMRLTEALQVSADWLL | -0.567
15 | HMDKFTYVVKKEDEQYQIKDILRHNFTFSSRLRKKLKQNNSIFLNGAETVGWATPKEGDIISVRLP | 0.219
16 | HMDKKEFGKRLKNLRIRNKMSQQAMADSLGYTSRSTINKIEEGINEMSYDKIVRLMELYGLSRPDLGLEPI | -0.157
17 | HMDKKTMFNEALAKLVSYATAHDNLITMEDVKSFFNGLIDDDSQYKLIYDYLSINKIEIKGFT | -0.704
18 | HMDKLEKRILDYLLQKSAIDGSTILKISHREMAMDLGTAREVVTRILKKLETGGFVRQGENYLEILK | -0.456
19 | HMDKPIFTLRENEVLYWASMGKTYAEIATIVGISVRTVKFHMGNVVSKLGVSNARQAIRLGVELDLITPMQ | -1.76
20 | HMDKSFYETFEKIGHGDFDKGLNHVWQHANDGNGTATLLLSKLFLEFGDLDNFEKYLNISAEQSNPVAMKI | -0.191
21 | HMDKSNEVLMNHYRKQEINQAKKRLEEEKMSIIQVLQLTNKEVITTDELLEALYISKEQLLDEIINTTQ | -1.02
22 | HMDKSPVLQLNRDVPAGQQISADDFRTVEIGADGAFRSVPSSDLNAMVGSYAKVRLIAGTLLAREALQSG | -0.0884
23 | HMDKSRPVLRVGDSGDWVSKLQTALLEFGYRVAVDGVFGEHTKSAVVHFQNGRRLIADGVVGNLTWDALL | -0.968

Row | Sequence | soluble fraction (log2)
24 | HMDKWFPVSSDHKVQVGDYLRTADGLVKVEATHNEYGTFYGKIITAIHDDVVKGETYEYRIDDVQVLA | -1.77
25 | HMDLAPLQTVDIAINYAKAAELAAILKSSEGGILSDRGGVTVDERTNTLLIRDTLESIDEARKTI | -0.4
26 | HMDLATQHAAKVNAAILAARRFEREGSWRQVAAKYSEALQLMPGNEQASRGYQQAMAMLDERD | 0.41
27 | HMDLDSGVAVLRTLMSQHNLQTDDFQNEIGGKSMVSMILNGTRKLSKNHIQALSGRFNLSPALFF | -0.494
28 | HMDLEELSNKMNNVFESLSSDLRDIIIMSDIEGLSYEEISHKINIPIGTVRSRLHRARDLMVRVIKEN | -0.713
29 | HMDLGEQIIEKLRAAGGFLAITDKSPAEEIYELFATSKKNYKKAVGGLYKKGLLVIEDDGIRLTPAGR | ≥ 0.43
30 | HMDLHERISSVLLGTGKSNDELAQILGVNKNTISAYKNKHGDLKGIVLEGIVKHFDINPVWLLTGSGTR | 0.0745
31 | HMDLKSLEFAIVENVQRHDLNPLEEAQGYKRLIDEFSYDQDKVSKFIGKSRSYITNSLRLLNLPLEVLEF | -0.541
32 | HMDLKTNSQLINELEKKIKRPFDREIKNYLNKNLSTDRMISNNEIDKIILFYSGNNEIPNIEKISLILNDN | 0.0193
33 | HMDLPATVPNLEGLTEVTARNKLTVAGLSLGEVKEVESDKEKGTVVGQSIAYGKRVTKGTKVDIEISSGK | 0.318
34 | HMDLPDTLSMPNALKVLEDNGFPTSKAKLYKMTSQEQIPFMKYGNKLVFSRKALIEWAHKQLV | 0.301
35 | HMDLPREKRIEIGLTYIYGIGLKTSQKILAATGIDPNTRVKDLDETTVSKLREYIDHNYRVEGELRS | -0.217
36 | HMDLSLQTFNELKTELTNNKITIDQFSEKINEFDITSDIFEISRELFLDDTLSLEDYLVVIENVLIN | -0.782
37 | HMDLSQTVQAKALARVNVREGAGTHFKSLGKLKKGELLPVFRVGNSWASIWWKGRVAYVHTDYLRFESA | -0.153
38 | HMDLTKLFDHDSEYGKSYVFGKITDEMIARAEQTLGYRMPASYIELLKVQNGGMISDELDESWLTTIYGIG | -0.932
39 | HMDMAYEVVKAFHDLQDYKDVKGGKVYHHYDVGDTYPRQGLDPAPDETRIEELLSSGNAQGVPLIAEV | -0.219
40 | HMDMNVQNYRGLSLDRAKKLISDLGLKYEVVGTGDSVVKQVPSSGSRMSKENGRIILYTENVEDA | 0.278
41 | HMDMPLIGTAIRGWGIISPAQQETLIKMSILTVEDLAAINDEGIKRIGMGGLDLKNKAKAWLLQLK | -0.00985
42 | HMDMRLADLIGRDGITITFMRPSGKVEIDGEIYDAVSDVGLIDKNEEVEVIKFENAQLVVTKKNKN | 0.108
43 | HMDMSVDQFNQGIRGSELYQQFIHGRGLQQPDGKTREWTDADRNAWRRTLEASGVRIPDGMKIDNAGNLNE | -0.052
44 | HMDNEIIEEEKITTLMITHNMRDAIKYGNRLIMLNEGRVIFDISGEEKKNLTVQELLEKFEK | 0.22
45 | HMDNEIMYPIQINGKVRAELFVSTERAMDKQYVLEQAKANEKIQGYLEGNRLVKEIFVPKRIVNLVIAP | 0.184
46 | HMDNIEIGNRIREIRIKKNISVFELAYRTKTSQSHIYQIEGGSQNMSIELLFKIADTLETDPNTILGV | -2.25

Row | Sequence | soluble fraction (log2)
47 | HMDNIPAHIKAKIINYVNRNYPGAIIKDIERKSNGRYEAEIVYNNREYDLLFDAQGNFISASLDDK | -0.32
48 | HMDNNFIQSLYPIAIGISKNQLDPWDLINGWVEYYLKNKEKYINHPNLKAVAVLKMKGLLIDHFRKS | -1.96
49 | HMDNPKGNLQEAVQAKGNEPIEYRVLNVDGPDHAREFKIAVFIGGKRKGTGVGNSKKKAEEIAAEKAFKRM | -0.189
50 | HMDNPVPVIITDQNFQPQLWKNVGVPTDTLFHELSAANQRKLENLMKTMIQTPLTDNGKISGYAFYSK | 0.152
51 | HMDNREKLRQEFLENLKELQEQNDIPQQEIDRVILDYDGVAEFLEDEGALKRYGGQLVDMTAYRAGAIPS | -2
52 | HMDNRLFKMLYYLLDKERATAPELAAEFEVSTRTIYRDVEALSSAGIPIYAEPGRNGGIYLLQD | -1.1
53 | HMDNTSNVEKTLRFIRQRGKVSRKEVETLLGSSKFPAISALNELLAENKIVKTGSGPAVRYSVS | 0.018
54 | HMDNVINDGMQVRFTGNVDINGTPLKIYDRIYTAEGISDDTVVLMLGNDVYARVYLSDVVPAD | -0.275
55 | HMDNWLSGLAVEADRMILTQPGEVFDRLSRAFEATLIRRALASTGGRRIEAAHLLGIGRNTITRKIQDLGL | -1.45
56 | HMDPDARQDAEVWLLDFLSAGPRTAQEIFTAARVEGHTRVTVKRAKATAGIQSVKQDFDGPWVWVLPGSG | -0.932
57 | HMDPFAYEVKVTDLAAGSSEIRTVYTEQGSFNIPSGMSGNLKIQVRSASMYDEVEPSDWYTIGEEDIN | -0.461
58 | HMDPLASLTPREREVLSLMAQGLSNLAVAERLVVSAGAVEKHISSIFTKLDLAPSEHEHRRVLAVLRYVAG | -2.09
59 | HMDPPISNDARNAINAKLMKFSELHPNEMKKLVEAYKKEFKVSKISPITLARQGEFLSHAISKIDDT | -0.0331
60 | HMDPQDGTVKFFNGARGFGFITPDGGGADVFVHVSAVERAGLTQLVEGQRVNFQTLPDTKGKGPKAVNLKV | -0.531
61 | HMDPSDQLYTVPPSAEGLRLDLFLVQHVPHMTRALATQLTGAGQVRVNGRRAKKGDRLPSGAQVRLEQAP | -0.138
62 | HMDPSHGESRENLDIMRIIDETHLEYPSWGYRKMTDHLRANHGYTINRKRVRRLMRLMDIIALFPG | -0.908
63 | HMDPSVTGLLTRLGISPQTAQELAGQYEEPYILEKIAIVEAHPEYVKNAAGFVITALQEDWKD | -1.37
64 | HMDPTHDMHFLVKDQVTGQPLPNMPYRLQLDNGQTLTGRTDALGMTEKISGHSPHIASIEVPY | 0.025
65 | HMDPVILDINSVKALLGISNKADFMAELSRLVVTEGDKKMIIPLAKEVGIDNVAVYKRNEIENISNYK | -0.297
66 | HMDQAEDVLSIPVDALMRGNQVYIKDDTVTEQQGPIPAGFKAVEVETGLISDSYVEIKSGLSEGDTVYVAE | -0.661
67 | HMDQESFGYFHVKYADVKQVADLVQKLNIPAVTWADERTRRLVALGSPATLQRISQVLNMVDL | -0.476
68 | HMDQHPYGEDSFRGDNPPAGFDIKGNEDSMKFHEPSSPWYGRTIAEVWFRSAAAAEAAGFVNAV | -0.0254
69 | HMDQINNDLRKLIEFLPEDQKTVLKMRHFQEMSFKEIAKATGVSINTALGRMRYALINLRKLIEENEI | -0.903

From the domain aggregation screens of Martell et al. (2025)
